Here are results for 25 molecules from patent US8268779B2, “Pharmaceutical composition comprising oxyntomodulin derivatives and a method for reducing body weight using the composition” (Merck Sharp & Dohme Corp., priority 2006, dated 2012).

In general, EC50 refers to the concentration that produces a half-maximal response. Read a high EC50 as weaker potency.

Non-standard residues stand in square brackets, D forms with d. Residues, ends and D or L forms follow the SMILES beside them. No end group written: not given here. *: point of attachment. C3 = cysteine residue PEGylated via the side-chain thiol with branched methoxyPEG [(mPEG)2] of 40 kDa (Cys(mPEG)2 40 kDa); (mPEG)2 40 kDa = C3 = Cys(mPEG)2 40 kDa, cysteine PEGylated via side-chain thiol with branched mPEG of 40 kDa; Desaminohistidyl = O=C(CCc1c[nH]cn1)*; Met(O) = CS(=O)CC[C@H](N)C(=O)O; Aib = CC(C)(N)C(=O)O

Data set [1] in a line: Hydrolysis sites on incubation in PBS containing 10% mouse or human plasma. It is filed as in vitro ADME. To be noted: 37° C. The method, then: A detailed study was undertaken in which OXM139 was incubated in PBS containing 10% of mouse or human plasma at 37° C. Sample preparation was accomplished by mixing 1 μL of test solution and 1 μL of matrix (α-cyano) directly on the sample plate. After crystallization Tof spectrum was collected: Time points at 30, 60, 120 and 720 minutes were analyzed and compared with the same time points of the control test solutions. […] Specifically, Arg 17 was mutated to Glu and Arg 18 was mutated to Ala. The peptide OXM153 is the N-ethyl maleimide analog of OXM151. The peptide OXM154 is the conjugate obtained using a (mPEG)240 kDa from NOF Corporation (SUNBRIGHT GL2-400MA Maleimide).
A similar study of stability was performed on a GcgK series analog OXM144 to determine the primary sites of hydrolysis by incubation with PBS, containing 10% of either mouse or human plasma. […] For this reason, it was decided to introduce mutations at the sites 17 and 18 also in the GcgK analog series.

The target in data set [2] is T1, hGLP-1R (Homo sapiens, UniProt P43220). The experiment in a line: EC50 (hGLP-1R), nM | "-DPP-IV". The method, then:
(§1) Table printed on a drawing sheet, FIG.17
Head of the field: EC50 (hGLP-1R), nM | "-DPP-IV"
(§2) First copying reader's note: The "+DPP-IV" column is the hGLP-1R EC50 measured after incubation with DPP-IV, so stability is shown as a potency shift against the "-DPP-IV" column.
(§3) Where the first naming reader finds the target: head: EC50 (hGLP-1R), nM

Data set [3] has as its target T1, hGLP-1R. In words: EC50 (hGLP-1R), nM | "+DPP-IV". The procedure: as §1, §2, §3
For another data set, the system named is Male C57BL/6N mice. In words: Acute effects on food intake and body weight in lean mice. In kind it is in vivo, mouse. To be noted: for overnight body weight gain in mice fed ad libitum: equimolar/similar doses; for overnight food intake and body weight gain in lean mice: FIG. 3.
Data set [4] deals with mutant form of the human GLP-1R. The experiment in a line: GLP-1R cAMP HTRF assay in transfected CHO cells. It is filed as cell-based.
Data set [5] deals with T2, recombinant soluble human DP-IV (Homo sapiens, UniProt P27487).
T2 construct: recombinant soluble human DP-IV
T2 sequence (P27487 39-766 limits assumed): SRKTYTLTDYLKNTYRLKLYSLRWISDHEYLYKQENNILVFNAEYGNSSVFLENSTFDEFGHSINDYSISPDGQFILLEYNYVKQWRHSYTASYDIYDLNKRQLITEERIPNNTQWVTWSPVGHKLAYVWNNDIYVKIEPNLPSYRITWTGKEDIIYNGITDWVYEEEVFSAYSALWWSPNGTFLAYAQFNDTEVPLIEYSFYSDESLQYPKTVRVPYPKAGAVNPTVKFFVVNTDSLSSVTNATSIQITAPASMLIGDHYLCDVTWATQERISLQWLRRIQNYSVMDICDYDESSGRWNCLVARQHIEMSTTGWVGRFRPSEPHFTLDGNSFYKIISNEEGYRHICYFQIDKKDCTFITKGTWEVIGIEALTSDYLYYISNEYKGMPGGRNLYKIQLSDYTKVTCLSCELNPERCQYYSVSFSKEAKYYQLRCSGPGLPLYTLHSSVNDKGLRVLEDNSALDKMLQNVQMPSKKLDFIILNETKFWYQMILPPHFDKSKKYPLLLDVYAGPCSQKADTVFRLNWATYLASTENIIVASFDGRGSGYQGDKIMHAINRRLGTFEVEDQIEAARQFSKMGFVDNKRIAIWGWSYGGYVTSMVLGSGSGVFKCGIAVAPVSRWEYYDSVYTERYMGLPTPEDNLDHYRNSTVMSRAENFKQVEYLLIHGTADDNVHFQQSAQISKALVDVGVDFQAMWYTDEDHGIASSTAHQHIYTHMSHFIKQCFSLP
In words: Resistance to DP-IV cleavage (preincubation with DP-IV, then hGLP-1R cAMP HTRF assay). As to conditions: FIG. 1. In kind it is in vitro ADME.
Protocol: Activation of hGLP-1R was subsequently measured using the Cis Bio HTRF cAMP assay and compared to control peptides pre-incubated at 37° C. for 2 hours in the absence of DP-IV.

For the next data set, the system named is WT mice. The experiment in a line: IPGTT with plasma glucose and insulin in WT mice. In kind it is in vivo, mouse. To be noted: OXM 0.3 mpk i.p., exendin-4 0.02 mpk i.p.
The next data set has as its system GLP-1R−/− mice. In words: IPGTT with plasma glucose and insulin in GLP-1R-/- mice. In kind it is in vivo, mouse.
The next data set has as its system mice. The experiment in a line: Gastric emptying in mice. In kind it is in vivo, mouse. As to conditions: maximally efficacious dose for glucose lowering.
The test system of data set [6] is islets from wild type C57BL/6 mice. The experiment in a line: Glucose-stimulated insulin secretion (GSIS) in wild type murine islets. In kind it is cell-based, mouse.
Protocol: (§4) To measure GSIS, islets were first preincubated for 30 minutes in the Krebs-Ringer bicarbonate (KRB) buffer with 2 mM glucose (in Petri dishes). […] Insulin was measured in aliquots of the incubation buffer by ELISA with a commercial kit (ALPCO Diagnostics, Windham, N.H.).
The test system of data set [7] is islets from GLP-1R−/− mice. The experiment in a line: GSIS in GLP-1R-/- islets. In kind it is cell-based, mouse. To be noted: 10 nM peptide, 16 mmol/l glucose.
Protocol: as §4
In data set [8] the test system is islets from GCG-R−/− mice. In words: GSIS in GCG-R-/- islets. As to conditions: 10 nM peptide.
Protocol: as §4

Protocol for Male C57BL/6N mice: Absolute changes in food intake were calculated for each animal by subtracting the amount of food remaining in the food hopper at the specified time points from that of the corresponding original pre-weighed aliquot. Absolute changes in body weight were calculated for each animal by subtracting the body weight of the animal prior to dosing from that of the corresponding animal at the specified time points. All values were reported as mean±SEM and peptide treatment groups were analyzed by the two-tailed unpaired Student's t test with reference to vehicle-treated animals. […] (FIG. 3)

As for “HαDGTFTSDYSKYLDSRRAQDFVQWLmNTKRNRNNIAC8-CONH2 [OXM139]”, in data set [1], the primary hydrolysis site entry is “bond between Arg17 and Arg18”; the “secondary site of hydrolysis” value was “bond between Arg18 and Ala19”.
For the molecule “H2αQGTFTSDYSKYLDSRRAQDFVQWLmNTKRNRNNIAC4-CONH2 (XXQGTFTSDYSKYLDSRRAQDFVQWLXNTKRNRNNIAX; Aib2, D-Met, C-terminal amide, conjugated Cys; Synthetic peptide based on the human oxyntomodulin sequence) [OXM114]”, the EC50 was 0.06 nM with hGLP-1R [2] and 0.05 nM in the data set with hGLP-1R [3].
As to “HαQGTFTSDYSKYLDSRRAQDFVQWLmNTKRNRNNIAC3-CONH2 [OXM99]”, the EC50 with hGLP-1R [2] amounted to 7.5 nM; with hGLP-1R [3], 27.5 nM.
As for “HαDGTFTSDYSKYLDSRRAQDFVQWLmNTKRNRNNIAC4-CONH2 [OXM118]”, the EC50 with hGLP-1R [2] was 0.025 nM; with hGLP-1R [3], less than 0.5 nM.
“HαDGTFTSDYSKYLDSRRAQDFVQWLmNTKRNRNNIAC3-CONH2 (H[Aib]DGTFTSDYSKYLDSRRAQDFVQWL[Met(O)]NTKRNRNNIAC((mPEG)2 40 kDa)-NH2) [OXM117, (mPEG)240 kDa conjugate made with MPEG2-MAL-40K (NEKTAR)]” showed an EC50 with hGLP-1R [3] of 41.3 nM.
For “HGQGTFTSDYSKYLDSRRAQDFVQWLMNTKRNRNNIAA-COOH (Synthetic peptide based on the human oxyntomodulin sequence) [OXM1]”, in the data set with Male C57BL/6N mice, the “overnight body weight gain in mice fed ad libitum” value (“overnight body weight gain” below) is given as “not efficacious”.
As for “HGQGTFTSDYSKYLDSRRAQDFVQWLMNTKRNRNNIAC3-COOH (HGQGTFTSDYSKYLDSRRAQDFVQWLMNTKRNRNNIAX; C3 conjugate at C-terminal cysteine; Synthesized oxyntomodulin polypeptide) [OXM3]”, in data set [4], the “potency against GLP-1R in vitro relative to native OXM” value is “significantly less potent than native OXM”. Also, in the data set on Male C57BL/6N mice, the “overnight food intake and body weight gain in lean mice” value is “reducing overnight food intake and body weight gain”; the “overnight body weight gain” value is recorded as “effective in reducing overnight body weight gain”.
Consider “HαDGTFTSDYSKYLDSRRAC3DFVQWLmNTKRNRNNIA-CONH2 [OXM125]”, for which the concentration giving a half-maximal response (EC50) with hGLP-1R [2] amounted to 3.9 nM; with hGLP-1R [3], 42.5 nM.
On the same counts, the results for “H2αQGTFTSDYSKYLDSRRAQDFVQWLmNTKRNRNNIAC3-CONH2 (XXQGTFTSDYSKYLDSRRAQDFVQWLXNTKRNRNNIAX; Aib2, D-Met, C-terminal amide, conjugated Cys; Synthetic peptide based on the human oxyntomodulin sequence) [OXM113]” are 93.3 nM and 92.3 nM.
As to “H2αQGTFTSDYSKYLDSRRAQDFVQWLmNTKRNRNNIAC5-CONH2 (XXQGTFTSDYSKYLDSRRAQDFVQWLXNTKRNRNNIAX; Aib2, D-Met, C-terminal amide, modified Cys; Synthetic peptide based on the human oxyntomodulin sequence) [OXM112]”, the EC50 with hGLP-1R [2] is 6.9 nM; with hGLP-1R [3], 10.9 nM.
Regarding “HαQGTFTSDYC3KYLDSRRAQDFVQWLmNTKRNRNNIA-CONH2 [OXM121]”, the EC50 with hGLP-1R [2] and with hGLP-1R [3] was greater than 125 nM each time.
Consider “HαQGTFTSDYSKYLDSRRAQDFVQWLMC3TKRNRNNIA-CONH2 (HXQGTFTSDYSKYLDSRRAQDFVQWLMXTKRNRNNIA; Aib2, C-terminal amide, conjugated Cys; Synthetic peptide based on the human oxyntomodulin sequence) [OXM109]”, for which the EC50 was 7.6 nM in the data set with hGLP-1R [2] and 14.5 nM with hGLP-1R [3].
On the same counts, the results for “HαQGTFTSDYSKYLDSRRAQDFVC3WLmNTKRNRNNIA-CONH2 [OXM107]” are 29.7 nM and 182 nM.
On the same counts, the results for “HαQGTFTSDYSKYLDSRRAQDFVQWLmNTKRNRNNIAC6-CONH2 [OXM100]” are 22.5 nM and 184 nM.
On to “HαQGTFTSDYSKYLDSRRAQDFVQWLMNTK-CONH2 (HXQGTFTSDYSKYLDSRRAQDFVQWLMNTK; Aib2, C-terminal amide; Synthetic peptide based on the human oxyntomodulin sequence) [OXM130]”, for which the EC50 worked out at 5.8 nM with hGLP-1R [2] and 8.7 nM with hGLP-1R [3].
On to “HαQGTFTSDYSC3YLDSRRAQDFVQWLmNTKRNRNNIA-CONH2 [OXM124]”, for which the EC50 with hGLP-1R [2] and in the data set with hGLP-1R [3] was greater than 100 nM throughout.
With “HαQGTFTSDYSKYLDSRRAQC3FVQWLMNTKRNRNNIA-CONH2 (HXQGTFTSDYSKYLDSRRAQXFVQWLMNTKRNRNNIA; Aib2, C-terminal amide, conjugated Cys; Synthetic peptide based on the human oxyntomodulin sequence) [OXM105]”, the results for the EC50 with hGLP-1R [2] and with hGLP-1R [3] were 28.5 nM and 36.7 nM, respectively.
For “HαDGTFTSDYSKYLDSRRAC8DFVQWLmNTK-CONH2 [OXM144]”, in data set [1], the primary hydrolysis site result was “bond between Arg17 and Arg18”; the “secondary site of hydrolysis” value was “bond between Arg18 and Ala19”.
As to `CSCC[C@H](NC(=O)[C@H](CC(C)C)NC(=O)[C@H](Cc1c[nH]c2ccccc12)NC(=O)[C@H](CCC(N)=O)NC(=O)[C@@H](NC(=O)[C@H](Cc1ccccc1)NC(=O)[C@H](CC(=O)O)NC(=O)[C@H](CCC(N)=O)NC(=O)[C@H](C)NC(=O)[C@H](CCCNC(=N)N)NC(=O)[C@H](CCCNC(=N)N)NC(=O)[C@H](CO)NC(=O)[C@H](CC(=O)O)NC(=O)[C@H](CC(C)C)NC(=O)[C@H](Cc1ccc(O)cc1)NC(=O)[C@H](CCCCN)NC(=O)[C@H](CO)NC(=O)[C@H](Cc1ccc(O)cc1)NC(=O)[C@H](CC(=O)O)NC(=O)[C@H](CO)NC(=O)[C@@H](NC(=O)[C@H](Cc1ccccc1)NC(=O)[C@@H](NC(=O)CNC(=O)[C@H](CC(=O)O)NC(=O)C(C)(C)NC(=O)[C@@H](N)Cc1c[nH]cn1)[C@@H](C)O)[C@@H](C)O)C(C)C)C(=O)N[C@@H](CC(N)=O)C(=O)N[C@H](C(=O)N[C@@H](CCCCN)C(N)=O)[C@@H](C)O` [OXM131] (H-H[Aib]DGTFTSDYSKYLDSRRAQDFVQWLMNTK-NH2; N-terminus assumed), the EC50 came to 0.9 nM on hGLP-1R [2] and 2.2 nM on hGLP-1R [3].
As for “HαQGTFTSDYSKYLDSRRAC3DFVQWLMNTKRNRNNIA-CONH2 (H[Aib]QGTFTSDYSKYLDSRRA[C3]DFVQWLMNTKRNRNNIA-NH2) [OXM103]”, the results for the EC50 with hGLP-1R [2] and in the data set with hGLP-1R [3] were 6.2 nM and 12.7 nM, respectively.
Regarding “HGQGTFTSDYSKYLDSRRAQDFVQWLMNTKRNRNNIAC2-COOH (HGQGTFTSDYSKYLDSRRAQDFVQWLMNTKRNRNNIAX; C2 conjugate at C-terminal cysteine; Synthetic peptide based on the human oxyntomodulin sequence) [OXM2]”, the “potency against GLP-1R in vitro relative to native OXM” value in [4] is “significantly less potent than native OXM”. For the same molecule, the “hGLP-1R potency after preincubation of the peptide with DP-IV” value in [5] is reported as “loss of potency”. Also, in the data set with Male C57BL/6N mice, the “overnight food intake and body weight gain in lean mice” value is “reducing overnight food intake and body weight gain”; the “overnight body weight gain” value is “effective in reducing overnight body weight gain”.
On to “exendin-4: GLP-1 mimetic, GLP-1 receptor agonist used as comparator”, for which the “reduction of glucose AUC relative to the vehicle group” value with WT mice is greater than 60%. For the same molecule, in the data set with GLP-1R−/− mice, the basal insulin levels entry was “did not affect basal insulin levels” and the “insulin response to i.p. glucose challenge” value was “nor did it improve the insulin response”. The “glucose excursion in IPGTT” value with GLP-1R−/− mice (same doses) is on record as “did not affect glucose excursion”. For the same molecule, in the data set on mice, the “reduction of gastric emptying” value is 47%.
“HαQGTFTSDYSKYLDSRRAQDC4VQWLmNTKRNRNNIA-CONH2 [OXM127]”: the EC50 with hGLP-1R [2] and with hGLP-1R [3] was greater than 500 nM each time.
Take “H2αDGTFTSDYSKYLDSRRAC3DFVQWLmNTKRNRNNIA-CONH2 ([Desaminohistidyl][Aib]DGTFTSDYSKYLDSRRAC((mPEG)2 40 kDa)DFVQWL[Met(O)]NTKRNRNNIA-NH2) [OXM129]”: the EC50 amounted to 25 nM with hGLP-1R [2] and 123 nM in the data set with hGLP-1R [3].
As for “GLP-1: incretin hormone glucagon-like peptide 1, positive control”, in [6] (10 nM peptide, 16 mmol/l glucose), the “GSIS in WT islets” value is “enhanced GSIS in WT islets with equal efficacy”. For the same molecule, in data set [6] (0.5 μM exendin-9), the “potentiation of GSIS in WT islets in the presence of exendin-9” value is “completely blocked”. In data set [7], the “potentiation of GSIS in GLP-1R−/− islets” value is on record as “completely unable to enhance GSIS”. In addition, in data set [8] (16 mM glucose), the “GSIS in GCG-R−/− islets” value is listed as “significantly increased GSIS”. Moreover, the “fold-increase in fractional GSIS in GCG-R−/− islets” value in data set [8] (% insulin released relative to total islet insulin content) is 2.5 fold.
